Consider 2 molecules from patent US20120058906A1 (published 2012).

Assay [1] addresses T1, rHuman Notch-1/Fc Chimera, CF (R&D Systems Cat#3647-TK) (human, UniProt P46531 19-526).
T1 construct: Bought Fc chimera; Fc part of the bought chimera not given
The experiment in a line: MSD ECL titration, Fab 2.3 nM, blank 234.

The target of assay [2] is T2, rHuman CD44/Fc Chimera, CF (R&D Systems Cat#3660-CD) (human, UniProt P16070 21-220).
T2 construct: Bought Fc chimera; Fc part of the bought chimera not given
Kind of assay: MSD ECL titration, Fab 2.3 nM, blank 234.

The target in assay [3] is T3, rHuman IGF-1 sR (insulin-like growth factor-1 soluble receptor), CF (R&D Systems Cat#391-GR) (human, UniProt P08069 31-932).
T3 construct: Bought soluble receptor; also called IGF-R1
Kind of assay: MSD ECL titration, Fab 2.3 nM, blank 234.

For assay [4], the target named is T4, rHuman P-Cadherin/Fc Chimera, CF (R&D Systems Cat#861-PC) (human, UniProt P22223 108-654).
T4 construct: Bought Fc chimera; Fc part of the bought chimera not given
The experiment in a line: MSD ECL titration, Fab 2.3 nM, blank 234.

Assay [5] concerns the target T5, rHuman Erythropoietin R/Fc Chimera, CF (R&D Systems Cat#963-ER) (human, UniProt P19235 25-250).
T5 construct: Bought Fc chimera; also called EPO R/Fc; EPOR; Fc part of the bought chimera not given
T5 sequence: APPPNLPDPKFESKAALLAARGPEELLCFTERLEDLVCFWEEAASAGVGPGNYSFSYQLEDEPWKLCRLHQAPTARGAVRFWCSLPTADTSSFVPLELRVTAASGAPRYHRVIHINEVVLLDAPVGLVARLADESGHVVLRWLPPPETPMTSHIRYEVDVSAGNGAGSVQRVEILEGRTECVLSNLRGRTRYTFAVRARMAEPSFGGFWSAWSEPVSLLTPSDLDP
Kind of assay: MSD ECL titration, Fab 2.3 nM, blank 234.

In assay [6] the target is T6, Recombinant Human DLL4 (R&D Systems Cat#1506-D4/CF) (human, UniProt Q9NR61 27-524).
T6 construct: Bought recombinant protein; also called rHuman DLL4; delta-like protein 4
The experiment in a line: MSD ECL titration, Fab 2.3 nM, blank 234.

For assay [7], the target named is T7, rHuman ErbB2/Fc Chimera, CF (R&D Systems Cat#1129-ER) (human, UniProt P04626 23-652).
T7 construct: Bought Fc chimera; also called HER2/neu; Fc part of the bought chimera not given
The experiment in a line: MSD ECL titration, Fab 2.3 nM, blank 234.

Assay [8] deals with T8, rHuman EGF R/Fc Chimera, CF (R&D Systems Cat#344-ER) (human, UniProt P00533 25-645).
T8 construct: Bought Fc chimera; Fc part of the bought chimera not given
The experiment in a line: MSD ECL titration, Fab 2.3 nM, blank 234.

In assay [9] the target is T9, rHuman HGF R/c-MET/Fc Chimera, CF (R&D Systems Cat#358-MT/CF) (human, UniProt P08581 25-932).
T9 construct: Bought Fc chimera; also called HGF R/Fc; Fc part of the bought chimera not given
Kind of assay: MSD ECL titration, Fab 2.3 nM, blank 234.

The target of assay [10] is T10, rHuman IGF-1 sR (IGF-1 sR), CF (R&D Systems Cat#391-GR) (human, UniProt P08069 31-932).
T10 construct: Purchased soluble receptor; also called insulin-like growth factor-1 soluble receptor; IGF-R1
The experiment in a line: MSD ECL multi-spot plate, antigen immobilized; Fab 40 nM; blank spot 518.

Assay [11] has as its target T11, rHuman P-Cadherin/Fc Chimera, CF (R&D Systems Cat#861-PC) (human, UniProt P22223 108-654).
T11 construct: Purchased Fc chimera; not shown: Fc portion of the purchased chimera
The description is as above.

The target in assay [12] is T10, rHuman IGF-1 sR (IGF-1 sR), CF (R&D …). Kind of assay: MSD ECL multi-spot plate, antigen immobilized; Fab 1.6 nM; blank spot 565.
For assay [13], the target named is T11, rHuman P-Cadherin/Fc Chimera, CF (R&D …). Described as above.
Assay [14] has as its target T12, rHuman Erythropoietin R/Fc Chimera, CF (R&D Systems Cat#963-ER) (human, UniProt P19235 25-250).
T12 construct: Purchased Fc chimera; also called EPO R/Fc; Epo R; not shown: Fc portion of the purchased chimera
T12 sequence: T5 sequence
The assay is described as above.

For assay [15], the target named is T13, Recombinant Human DLL4 (R&D Systems Cat#1506-D4/CF) (human, UniProt Q9NR61 27-524).
T13 construct: Purchased recombinant protein; also called delta-like protein 4
The description is as above.

In assay [16] the target is T14, rHuman ErbB2/Fc Chimera, CF (R&D Systems Cat#1129-ER) (human, UniProt P04626 23-652).
T14 construct: Purchased Fc chimera; also called HER2/neu; not shown: Fc portion of the purchased chimera
The description is as above.

Assay [17] addresses T15, rHuman EGF R/Fc Chimera, CF (R&D Systems Cat#344-ER) (human, UniProt P00533 25-645).
T15 construct: Purchased Fc chimera; not shown: Fc portion of the purchased chimera
Described as above.

Assay [18] concerns the target T16, rHuman HGF R/c-MET/Fc Chimera, CF (R&D Systems Cat#358-MT/CF) (human, UniProt P08581 25-932).
T16 construct: Purchased Fc chimera; also called HGF R/Fc; not shown: Fc portion of the purchased chimera
The assay is described as above.

For assay [19], the target named is T17, rHuman Notch-1/Fc Chimera, CF (R&D Systems Cat#3647-TK) (human, UniProt P46531 19-526).
T17 construct: Purchased Fc chimera; not shown: Fc portion of the purchased chimera
The description is as above.

Assay [20] deals with T18, rHuman CD44/Fc Chimera, CF (R&D Systems Cat#3660-CD) (human, UniProt P16070 21-220).
T18 construct: Purchased Fc chimera; not shown: Fc portion of the purchased chimera
The assay is described as above.
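Note: blank spot per well as comparator with Hit at signal to blank ratio of 4 or more.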

B1: Fab VH1-46_IGHD6-6*01_IGHJ1*01 & L6_IGKJ1*01 (Fab, V domains shown)
VH: QVQLVQSGAEVKKPGASVKVSCKASGYTFTSYYMHWVRQAPGQGLEWMGIINPSGGSTSYAQKFQGRVTMTRDTSTSTVYMELSSLRSEDTAVYYCAREEYSSSSAEYFQHWGQGTLVTVSS
VL: not shown
notes: Expressed in E. coli as Fab: heavy chain with CH1 plus Flag and His tags from Plasmid A, kappa light chain constant region from Plasmid C; also called Fab No. 1
With B1, the ECL signal in [1] was 333; in assay [2], 317; in assay [3] it was 231; in assay [4], 401; in assay [5], 429; in [6] it was 3060. In addition, the figures for the ECL signal in assay [7], in assay [8] and in assay [9] were 291, 289 and 253, respectively.

B2: Fab VH5-51_IGHD5-18*01>3_IGHJ4*01_G100K & V3-4_IGLJ1*01 (Fab, V domains shown)
VH: EVQLVQSGAEVKKPGESLKISCKGSGYSFTSYWIGWVRQMPGKGLEWMGIIYPGDSDTRYSPSFQGQVTISADKSISTAYLQWSSLKASDTAMYYCARRKYSYGYDYFDYWGQGTLVTVSS
VL: QTVVTQEPSFSVSPGGTVTLTCGLSSGSVSTSYYPSWYQQTPGQAPRTLIYSTNTRSSGVPDRFSGSILGNKAALTITGAQADDESDYYCVLYMGSGISYVFGTGTKVTVL
notes: It was expressed as a Fab: CH1 with tags from Plasmid A and lambda CL from Plasmid E; also called Fab No. 22
On to B2, for which the ECL signal in [10] came to 1270 ECL signal; in [11], 744 ECL signal; in assay [12] it was 1440 ECL signal; in assay [13], 811 ECL signal; in [14] it was 899 ECL signal; in [15], 2420 ECL signal. Moreover, the ECL signal worked out at 1320 ECL signal in assay [16]; 1180 ECL signal in assay [17]; 1440 ECL signal in [18]; 816 ECL signal in assay [19]; 938 ECL signal in assay [20].
